In US20260248897:

Assays:
[1] = biological target: RBD of SARS-CoV-2, on infectious virus (UniProt P0DTC2)
[2] = biological target: RBD of SARS-CoV-2 (B lineage) (UniProt P0DTC2)
RBD of hCoV-229E = RBD of hCoV-229E (UniProt P15423)

With “gene recombinant of human ERp46 (thioredoxin domain containing 5)” the “antiviral activity (number of viral copies of SARS-CoV-2 in supernatant of infected airway organoids)” value [1] was “Both PDI and ERp46 inhibited the SARS-CoV-2 infection in a concentration-dependent manner”, the “disulfide bond cleavage activity (remaining rate of native RBD; maleimide-PEG 2k, SDS-PAGE)” value [2] was “The order of the disulfide bond cleavage activity of the RBD from highest to lowest was PDI, ERp46, P5, ERp72, and ERp57” and the “disulfide bond cleavage activity (remaining rate of native RBD; maleimide-PEG 2k, SDS-PAGE)” value (RBD of hCoV-229E) was “The order of the disulfide bond cleavage activity of the RBD of hCoV-229E from highest to lowest was PDI, ERp46, P5, Erp57, and ERp72”.

For “gene recombinant of human PDI (protein disulfide isomerase)”, the “antiviral activity (number of viral copies of SARS-CoV-2 in supernatant of infected airway organoids)” value [1] was “Both PDI and ERp46 inhibited the SARS-CoV-2 infection in a concentration-dependent manner”, the “disulfide bond cleavage activity (remaining rate of native RBD; maleimide-PEG 2k, SDS-PAGE)” value [2] was “The order of the disulfide bond cleavage activity of the RBD from highest to lowest was PDI, ERp46, P5, ERp72, and ERp57. Among these, the disulfide bond cleavage activity of PDI was significantly high” and the “disulfide bond cleavage activity (remaining rate of native RBD; maleimide-PEG 2k, SDS-PAGE)” value (RBD of hCoV-229E) was “The order of the disulfide bond cleavage activity of the RBD of hCoV-229E from highest to lowest was PDI, ERp46, P5, Erp57, and ERp72. Among these, the disulfide bond cleavage activity of PDI was significantly high”.
